Numbering of substitutions follows the chain as printed. Values belong to the molecule of their own block, whether it stands above or below them.
Key:
[1] = test system: downstream signaling of the Tie2 receptor (Akt phosphorylation) in HUVECs; experiment: Akt phosphorylation in HUVECs by mouse anti-Ang2 antibodies plus hAng2 (immunoblot); format: cell-based, human; details: serum-starved HUVECs; antibody combined with hAng2 1 μg/ml; 30 min
Procedure: To investigate whether the mouse anti-Ang2 antibodies induce the downstream signaling of the Tie2 receptor in endothelial cells, HUVECs (LONZA™) were treated with a combination of hAng2 protein and anti-Ang2 antibody, and then the level of Akt phosphorylation, the main downstream signaling protein of Tie2 receptor, was analyzed by immunoblotting. As a negative control group, the full-length hAng2 (R&D® Systems) alone was treated into the cells.
Specifically, HUVECs (1×10^5 cells/ml) were cultured in EGM-2 medium (LONZA™) at 37° C. in a 60 mm culture dish. Cells (90% confluency) were incubated with serum-free EBM-2 medium for 4 hrs for serum starvation. The serum-starved HUVECs were treated with a mixture of anti-Ang2 antibody and hAng2 protein (1 μg/ml, R&D® Systems) and further incubated for 30 min. The cells were washed with cold PBS, treated with lysis buffer, and lysed at 4° C. for 20 min. Then, the cell lysates were prepared by centrifugation at 13000 rpm for 15 min. 5× SDS sample buffer was added to the cell lysate and the cell lysate was boiled at 95° C. for 5 min. Then, the cell lysate was subjected to SDS PAGE and proteins were transferred to a nitrocellulose membrane (GE).
To investigate Akt phosphorylation, the blot was blocked with 5% skim milk-containing TBS-T for 1 hr at room temperature (RT), and incubated with anti-phospho-Akt antibody (S473) at 4° C. for about 8 hrs. The amount of phospho-Akt was visualized by an enhanced chemiluminescence (ECL). Then, the membrane was incubated in a stripping buffer (Thermo) for 15 min, and then reprobed with an anti-Akt antibody to determine the amount of total Akt.

[2] = molecular target: T1, hAng2 (Homo sapiens, UniProt O15123); experiment: OCTET affinity of mouse monoclonal anti-Ang2 antibodies against hAng2; details: hAng2 fixed on AR2G biosensor, 1:1 binding model
T1 sequence (O15123 19-496): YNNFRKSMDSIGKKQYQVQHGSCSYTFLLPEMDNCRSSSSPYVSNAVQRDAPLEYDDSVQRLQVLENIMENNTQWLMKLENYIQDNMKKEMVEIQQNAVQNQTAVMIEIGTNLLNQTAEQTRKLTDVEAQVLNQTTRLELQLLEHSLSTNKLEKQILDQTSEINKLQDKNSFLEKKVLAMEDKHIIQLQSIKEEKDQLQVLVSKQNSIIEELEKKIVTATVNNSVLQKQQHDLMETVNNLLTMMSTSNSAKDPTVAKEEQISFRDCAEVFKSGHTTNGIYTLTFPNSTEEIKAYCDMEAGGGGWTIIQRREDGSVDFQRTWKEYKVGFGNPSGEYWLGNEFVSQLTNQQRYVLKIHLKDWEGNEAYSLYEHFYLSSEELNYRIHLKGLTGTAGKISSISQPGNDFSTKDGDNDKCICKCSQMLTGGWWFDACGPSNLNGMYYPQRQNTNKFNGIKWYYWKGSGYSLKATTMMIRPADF
Procedure: The affinity of mouse monoclonal antibody against hAng2 was measured using OCTET® system (ForteBio, real-time, label-free bio-layer interferometry system for determination of affinity, kinetics, and concentration). Specifically, buffer and samples were measured in total 200 μl/well using Black 96-well plates (96 well F-type black plates, Greiner). The biosensor used for affinity measurements was hydrated for 10 min before measurement with AR2G tip (ForteBio OCTET®). After the hydration, hAng2 was diluted in 10 mM sodium acetate, pH 6.0 buffer at a concentration of 10 μg/ml, fixed on AR2G biosensor, and blocked with 1M ethanolamine. The mouse monoclonal anti-Ang2 antibodies were diluted to 50, 25, 12.5, 6.25, 3.125, and 0 nM with 1× kinetic buffer, and subjected to association for 300 seconds and dissociation for 900 seconds. For affinity measurement (KD), the association rate (K-on) and dissociation rate (K-off) were analyzed by binding curve (global) and fitted to 1:1 binding model using OCTET® data analysis v9.0.0.10 program.

Akt phosphorylation at S473 [1]: strongly induced
Koff [2]: 1.71e-05 s⁻¹
Kon [2]: 124000 M⁻¹ s⁻¹
B1: 2F10: mouse monoclonal anti-Ang2 antibody; VH SEQ ID NO: 29, VL SEQ ID NO: 31 (antibody, V domains shown)
VH: QVQLVESGGGLVKPGGSLKLSCAASGFTFSDYYMYWIRQTPEKRLEWVATINDGGSYTYYPDSVKGRFTISRDNAKNNLYLQMSSLKSEDTAMYYCARDWGLRPWFVYWGQGTLVTVSA
VL: DIVMTQSHKFMSTSVGDRVSITCKASQDVSTAVAWYQQKPGQSPKLLIYWASTRHTGVPDRFTGSGSGTDYTLTISSVQAEDLALYYCQQHYTTPPTFGSGTKLEIK
modifications: Heavy Chain Variable Region; Light Chain Variable Region

Akt phosphorylation at S473 [1]: strongly induced
Koff [2]: 0.000134 s⁻¹
Kon [2]: 28300 M⁻¹ s⁻¹
B2: 4E2: mouse monoclonal anti-Ang2 antibody; VH SEQ ID NO: 39, VL SEQ ID NO: 41 (antibody, V domains shown)
VH: EVQLQQSGPELEKPGASVKISCKASGYSFTGYNMNWVKQSNGKSLEWIGNIDPYYGGTSYNQKFKGKATLTVDKSSSTAYMQLKSLTSEDSAVYYCVRYGNYVDYWGQGTTLTVSS
VL: B1 VL with T93N
modifications: Heavy Chain Variable Region; Light Chain Variable Region
